Assay results taken from the supplement of paper PMC10065799, “High-throughput profiling of sequence recognition by tyrosine kinases and SH2 domains using bacterial peptide display” (eLife, 2023).

Experiments:
[1] = molecular target: c-Src SH2; experiment: SH2 binding enrichment of the phosphorylated peptide, bacterial display (enrichment ratio); higher = better substrate or ligand; peptides without Tyr show the background
[2] = molecular target: Grb2 SH2 (UniProt P62993); experiment: as above
[3] = molecular target: SHP2-C SH2; experiment: as above
[4] = molecular target: EPHB2 (UniProt P29323); experiment: phosphorylation enrichment, bacterial display (enrichment ratio); higher = better substrate or ligand; peptides without Tyr show the background
Chain of EPHB2 (P29323 whole entry, looked up): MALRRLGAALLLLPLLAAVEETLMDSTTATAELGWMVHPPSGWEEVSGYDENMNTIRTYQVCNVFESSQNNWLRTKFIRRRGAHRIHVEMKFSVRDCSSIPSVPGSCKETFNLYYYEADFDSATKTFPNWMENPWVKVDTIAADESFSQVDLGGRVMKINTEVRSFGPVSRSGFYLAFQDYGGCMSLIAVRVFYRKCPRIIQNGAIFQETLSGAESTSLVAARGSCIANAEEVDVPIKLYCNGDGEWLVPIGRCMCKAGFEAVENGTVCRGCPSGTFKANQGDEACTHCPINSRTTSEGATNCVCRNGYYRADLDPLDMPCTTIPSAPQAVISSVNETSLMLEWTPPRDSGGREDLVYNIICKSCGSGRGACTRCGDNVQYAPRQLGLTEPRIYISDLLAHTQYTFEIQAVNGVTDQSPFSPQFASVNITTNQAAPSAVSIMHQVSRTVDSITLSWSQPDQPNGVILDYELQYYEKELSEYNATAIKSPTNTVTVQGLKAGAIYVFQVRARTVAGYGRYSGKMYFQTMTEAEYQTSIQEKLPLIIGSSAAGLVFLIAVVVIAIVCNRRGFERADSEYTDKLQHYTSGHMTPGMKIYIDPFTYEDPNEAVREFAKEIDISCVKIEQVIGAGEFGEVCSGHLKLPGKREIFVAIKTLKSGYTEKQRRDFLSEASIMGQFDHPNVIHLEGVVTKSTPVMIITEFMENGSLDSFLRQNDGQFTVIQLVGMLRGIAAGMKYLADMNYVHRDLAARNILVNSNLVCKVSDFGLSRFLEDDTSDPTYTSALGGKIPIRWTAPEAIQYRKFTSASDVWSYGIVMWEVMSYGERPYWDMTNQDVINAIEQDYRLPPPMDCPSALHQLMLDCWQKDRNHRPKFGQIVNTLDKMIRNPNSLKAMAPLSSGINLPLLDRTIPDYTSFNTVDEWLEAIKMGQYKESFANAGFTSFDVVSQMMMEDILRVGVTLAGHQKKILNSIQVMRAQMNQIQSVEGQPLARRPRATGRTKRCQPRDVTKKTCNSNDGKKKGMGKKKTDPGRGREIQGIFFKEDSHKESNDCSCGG

[5] = system: AncSZ; experiment: as above
[6] = molecular target: FGFR1 (UniProt P11362); experiment: as above
Chain of FGFR1 (P11362 whole entry, looked up): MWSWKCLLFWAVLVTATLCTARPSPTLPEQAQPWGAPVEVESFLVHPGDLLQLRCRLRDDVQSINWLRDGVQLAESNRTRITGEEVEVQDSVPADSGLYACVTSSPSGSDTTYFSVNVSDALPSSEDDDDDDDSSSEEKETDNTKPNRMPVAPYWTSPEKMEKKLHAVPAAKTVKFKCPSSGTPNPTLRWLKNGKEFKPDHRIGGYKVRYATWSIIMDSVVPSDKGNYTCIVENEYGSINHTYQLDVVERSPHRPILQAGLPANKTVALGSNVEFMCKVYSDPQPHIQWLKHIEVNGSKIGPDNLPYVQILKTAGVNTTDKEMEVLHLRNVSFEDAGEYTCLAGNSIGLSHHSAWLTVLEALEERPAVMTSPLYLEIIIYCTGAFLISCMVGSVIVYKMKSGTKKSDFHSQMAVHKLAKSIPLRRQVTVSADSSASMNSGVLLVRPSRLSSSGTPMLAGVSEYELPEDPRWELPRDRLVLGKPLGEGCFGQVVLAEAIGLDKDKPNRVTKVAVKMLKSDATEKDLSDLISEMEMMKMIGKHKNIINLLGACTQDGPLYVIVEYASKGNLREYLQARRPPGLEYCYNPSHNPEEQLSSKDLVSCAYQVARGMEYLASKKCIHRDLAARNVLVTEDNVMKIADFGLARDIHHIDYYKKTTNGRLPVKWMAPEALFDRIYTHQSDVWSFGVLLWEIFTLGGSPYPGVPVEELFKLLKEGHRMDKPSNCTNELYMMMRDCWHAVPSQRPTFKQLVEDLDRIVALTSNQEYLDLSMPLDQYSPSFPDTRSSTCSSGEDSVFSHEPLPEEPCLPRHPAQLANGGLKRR

[7] = molecular target: Jak2 (UniProt O60674); experiment: as above
Chain of Jak2 (O60674 whole entry, looked up): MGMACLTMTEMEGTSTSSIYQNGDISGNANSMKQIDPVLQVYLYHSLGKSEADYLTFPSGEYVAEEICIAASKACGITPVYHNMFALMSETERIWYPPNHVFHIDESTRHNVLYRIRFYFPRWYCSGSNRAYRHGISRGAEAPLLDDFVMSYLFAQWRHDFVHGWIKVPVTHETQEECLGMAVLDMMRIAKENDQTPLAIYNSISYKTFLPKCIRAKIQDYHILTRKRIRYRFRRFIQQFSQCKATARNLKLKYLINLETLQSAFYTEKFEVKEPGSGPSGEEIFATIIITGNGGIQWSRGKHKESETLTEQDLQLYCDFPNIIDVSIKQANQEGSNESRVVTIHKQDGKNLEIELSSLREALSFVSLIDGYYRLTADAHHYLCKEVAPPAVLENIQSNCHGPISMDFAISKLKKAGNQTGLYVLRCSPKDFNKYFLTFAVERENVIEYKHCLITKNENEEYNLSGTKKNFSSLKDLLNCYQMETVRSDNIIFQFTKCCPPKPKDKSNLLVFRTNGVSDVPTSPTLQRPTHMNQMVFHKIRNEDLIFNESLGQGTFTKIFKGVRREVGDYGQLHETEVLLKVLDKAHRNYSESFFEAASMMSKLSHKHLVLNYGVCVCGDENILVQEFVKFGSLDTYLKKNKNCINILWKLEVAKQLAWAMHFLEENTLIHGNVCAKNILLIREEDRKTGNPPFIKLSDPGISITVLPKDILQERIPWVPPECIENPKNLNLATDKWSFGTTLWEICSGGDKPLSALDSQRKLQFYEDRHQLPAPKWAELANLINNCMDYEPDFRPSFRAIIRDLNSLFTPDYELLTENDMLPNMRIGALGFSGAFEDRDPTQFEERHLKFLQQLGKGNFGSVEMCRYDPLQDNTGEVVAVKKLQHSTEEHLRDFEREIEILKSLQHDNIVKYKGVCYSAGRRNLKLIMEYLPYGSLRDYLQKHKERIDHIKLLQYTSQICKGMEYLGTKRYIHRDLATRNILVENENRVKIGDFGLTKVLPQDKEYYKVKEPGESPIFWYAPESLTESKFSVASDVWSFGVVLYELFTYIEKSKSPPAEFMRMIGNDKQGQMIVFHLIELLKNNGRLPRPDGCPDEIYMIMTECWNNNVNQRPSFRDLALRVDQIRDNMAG

[8] = molecular target: MERTK (UniProt Q12866); experiment: as above
[9] = system: c-Abl (mouse); experiment: as above
[10] = system: c-Src; experiment: as above
[11] = molecular target: EPHB1 (UniProt P54762); experiment: as above
Chain of EPHB1 (P54762 whole entry, looked up): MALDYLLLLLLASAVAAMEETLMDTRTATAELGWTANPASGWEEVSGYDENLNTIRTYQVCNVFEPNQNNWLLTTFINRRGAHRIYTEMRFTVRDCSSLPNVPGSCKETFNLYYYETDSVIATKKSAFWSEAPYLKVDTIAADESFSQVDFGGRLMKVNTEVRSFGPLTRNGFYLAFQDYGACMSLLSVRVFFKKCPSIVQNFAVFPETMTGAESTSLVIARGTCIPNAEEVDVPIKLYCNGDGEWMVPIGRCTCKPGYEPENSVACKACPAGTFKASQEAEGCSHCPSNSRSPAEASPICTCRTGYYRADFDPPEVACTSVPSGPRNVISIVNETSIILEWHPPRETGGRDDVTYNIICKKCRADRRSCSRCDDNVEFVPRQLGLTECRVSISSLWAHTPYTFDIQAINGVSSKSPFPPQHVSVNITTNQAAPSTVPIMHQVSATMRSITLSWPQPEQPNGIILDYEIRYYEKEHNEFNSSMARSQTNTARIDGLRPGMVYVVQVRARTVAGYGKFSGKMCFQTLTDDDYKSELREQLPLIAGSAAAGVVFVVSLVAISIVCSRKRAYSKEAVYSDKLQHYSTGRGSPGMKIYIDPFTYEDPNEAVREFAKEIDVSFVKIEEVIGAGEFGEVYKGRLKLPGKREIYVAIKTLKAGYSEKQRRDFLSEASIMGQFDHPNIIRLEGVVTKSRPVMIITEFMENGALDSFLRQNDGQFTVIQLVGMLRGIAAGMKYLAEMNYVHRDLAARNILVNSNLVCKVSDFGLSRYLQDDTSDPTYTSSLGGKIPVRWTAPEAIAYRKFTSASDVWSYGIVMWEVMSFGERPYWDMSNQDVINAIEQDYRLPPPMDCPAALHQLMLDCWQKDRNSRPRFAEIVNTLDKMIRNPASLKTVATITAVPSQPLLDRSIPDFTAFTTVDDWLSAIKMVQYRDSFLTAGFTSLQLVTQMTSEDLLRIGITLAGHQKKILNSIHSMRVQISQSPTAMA

[12] = system: Fer (mouse); experiment: as above
[13] = molecular target: FGFR3 (UniProt P22607); experiment: as above
[14] = molecular target: Fyn (UniProt P06241); experiment: as above
[15] = molecular target: Fes (UniProt P07332); experiment: as above
[16] = molecular target: Hck (UniProt P08631); experiment: as above
Chain of Hck (P08631 whole entry, looked up, the tested form may be a part): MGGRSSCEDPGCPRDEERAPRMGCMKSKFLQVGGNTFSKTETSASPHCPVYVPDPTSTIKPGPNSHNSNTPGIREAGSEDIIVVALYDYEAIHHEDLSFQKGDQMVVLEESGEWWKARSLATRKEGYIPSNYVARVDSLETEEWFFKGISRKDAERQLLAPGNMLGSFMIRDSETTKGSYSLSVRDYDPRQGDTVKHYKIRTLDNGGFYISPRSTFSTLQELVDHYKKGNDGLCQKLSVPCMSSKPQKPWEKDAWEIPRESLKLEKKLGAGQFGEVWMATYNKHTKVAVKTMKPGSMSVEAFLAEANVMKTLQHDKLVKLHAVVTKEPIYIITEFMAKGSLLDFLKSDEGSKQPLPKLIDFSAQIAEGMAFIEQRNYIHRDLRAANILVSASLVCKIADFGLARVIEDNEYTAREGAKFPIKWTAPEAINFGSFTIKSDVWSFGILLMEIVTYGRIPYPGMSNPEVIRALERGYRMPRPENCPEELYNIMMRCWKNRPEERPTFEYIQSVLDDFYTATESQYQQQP
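For SH2 binding enrichment of the phosphorylated peptide, bacterial display in this document: peptide library displayed on the E. coli surface as eCPX fusions, selected cells deep-sequenced, score is each peptide's frequency after selection divided by its frequency in the input.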
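For phosphorylation enrichment, bacterial display in this document: 11-residue human phosphosite peptides and single-mutation variants displayed on the E. coli surface, counted by deep sequencing, each peptide's frequency after selection divided by its frequency in the unselected input library; frequency after pTyr selection over input frequency; kinase dosed for 20-30% of maximal phosphorylation in three min.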

Chain of Grb2 SH2 (P62993 whole entry, looked up): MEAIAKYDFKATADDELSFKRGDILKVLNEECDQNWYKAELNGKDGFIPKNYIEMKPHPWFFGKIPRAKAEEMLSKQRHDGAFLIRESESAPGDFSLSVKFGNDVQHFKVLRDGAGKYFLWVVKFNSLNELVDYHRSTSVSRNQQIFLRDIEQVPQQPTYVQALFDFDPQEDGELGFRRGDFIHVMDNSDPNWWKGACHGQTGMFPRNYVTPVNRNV

Sequence: CLLHCYFSQIR [MCM3AP_Y873]
- SH2 binding enrichment [1]: 1.53
- SH2 binding enrichment [2]: 1.93
- SH2 binding enrichment [3]: 1.65
- phosphorylation enrichment [4]: 0.428
- phosphorylation enrichment [5]: 0.856
- phosphorylation enrichment [6]: 0.518
- phosphorylation enrichment [7]: 1.21
- phosphorylation enrichment [8]: 0.401
- phosphorylation enrichment [9]: 0.667
- phosphorylation enrichment [10]: 0.368
- phosphorylation enrichment [11]: 0.497
- phosphorylation enrichment [12]: 0.391
- phosphorylation enrichment [13]: 0.867
- phosphorylation enrichment [14]: 0.327
- phosphorylation enrichment [15]: 1.32
- phosphorylation enrichment [16]: 0.413

Sequence: VRQQDYKKVEE [HADHA_Y283_V282D]
- SH2 binding enrichment [1]: 0.414
- SH2 binding enrichment [2]: 1.02
- SH2 binding enrichment [3]: 0.532
- phosphorylation enrichment [4]: 0.561
- phosphorylation enrichment [5]: 0.783
- phosphorylation enrichment [6]: 0.514
- phosphorylation enrichment [7]: 0.564
- phosphorylation enrichment [8]: 0.419
- phosphorylation enrichment [9]: 0.423
- phosphorylation enrichment [10]: 0.43
- phosphorylation enrichment [11]: 0.517
- phosphorylation enrichment [12]: 0.376
- phosphorylation enrichment [13]: 0.442
- phosphorylation enrichment [14]: 0.417
- phosphorylation enrichment [15]: 0.604
- phosphorylation enrichment [16]: 0.482

Sequence: PMWHPYKVDVT [TP53TG5_Y255]
- SH2 binding enrichment [1]: 0.436
- SH2 binding enrichment [2]: 0.525
- SH2 binding enrichment [3]: 0.487
- phosphorylation enrichment [4]: 0.54
- phosphorylation enrichment [5]: 1.09
- phosphorylation enrichment [6]: 0.561
- phosphorylation enrichment [7]: 0.643
- phosphorylation enrichment [8]: 0.398
- phosphorylation enrichment [9]: 0.433
- phosphorylation enrichment [10]: 2.06
- phosphorylation enrichment [11]: 0.753
- phosphorylation enrichment [12]: 0.611
- phosphorylation enrichment [13]: 0.872
- phosphorylation enrichment [14]: 1.3
- phosphorylation enrichment [15]: 1.27
- phosphorylation enrichment [16]: 0.5

Sequence: TGNPAYRSFSN [IL4R_Y497_A492T]
- SH2 binding enrichment [1]: 0.442
- SH2 binding enrichment [2]: 0.791
- SH2 binding enrichment [3]: 0.65
- phosphorylation enrichment [4]: 0.328
- phosphorylation enrichment [5]: 0.595
- phosphorylation enrichment [6]: 0.406
- phosphorylation enrichment [7]: 0.422
- phosphorylation enrichment [8]: 0.326
- phosphorylation enrichment [9]: 0.441
- phosphorylation enrichment [10]: 0.373
- phosphorylation enrichment [11]: 0.328
- phosphorylation enrichment [12]: 0.326
- phosphorylation enrichment [13]: 0.457
- phosphorylation enrichment [14]: 0.369
- phosphorylation enrichment [15]: 0.584
- phosphorylation enrichment [16]: 0.404

Sequence: AFLEDYFTSTK [SRC_Y522_E527K]
- SH2 binding enrichment [1]: 0.553
- SH2 binding enrichment [2]: 0.947
- SH2 binding enrichment [3]: 1.07
- phosphorylation enrichment [4]: 0.492
- phosphorylation enrichment [5]: 1.1
- phosphorylation enrichment [6]: 0.639
- phosphorylation enrichment [7]: 1.26
- phosphorylation enrichment [8]: 0.504
- phosphorylation enrichment [9]: 0.591
- phosphorylation enrichment [10]: 0.463
- phosphorylation enrichment [11]: 0.378
- phosphorylation enrichment [12]: 0.356
- phosphorylation enrichment [13]: 0.774
- phosphorylation enrichment [14]: 0.474
- phosphorylation enrichment [15]: 0.97
- phosphorylation enrichment [16]: 0.52

Sequence: AADGRYEVLFL [SEMA3F_Y478]
- SH2 binding enrichment [1]: 7
- SH2 binding enrichment [2]: 0.832
- SH2 binding enrichment [3]: 0.617
- phosphorylation enrichment [4]: 0.683
- phosphorylation enrichment [5]: 1.07
- phosphorylation enrichment [6]: 0.62
- phosphorylation enrichment [7]: 1.02
- phosphorylation enrichment [8]: 0.749
- phosphorylation enrichment [9]: 0.624
- phosphorylation enrichment [10]: 0.489
- phosphorylation enrichment [11]: 0.731
- phosphorylation enrichment [12]: 2.97
- phosphorylation enrichment [13]: 0.822
- phosphorylation enrichment [14]: 0.447
- phosphorylation enrichment [15]: 1.01
- phosphorylation enrichment [16]: 0.792

Sequence: EPDSLYGCGRG [ATM_Y2019_G2023R]
- SH2 binding enrichment [1]: 0.559
- SH2 binding enrichment [2]: 0.93
- SH2 binding enrichment [3]: 0.886
- phosphorylation enrichment [4]: 0.45
- phosphorylation enrichment [5]: 0.933
- phosphorylation enrichment [6]: 0.399
- phosphorylation enrichment [7]: 0.858
- phosphorylation enrichment [8]: 0.419
- phosphorylation enrichment [9]: 0.885
- phosphorylation enrichment [10]: 2.52
- phosphorylation enrichment [11]: 0.534
- phosphorylation enrichment [12]: 0.574
- phosphorylation enrichment [13]: 0.576
- phosphorylation enrichment [14]: 2.05
- phosphorylation enrichment [15]: 0.926
- phosphorylation enrichment [16]: 4.04

Sequence: LLREWYLPDPY [SIX3_Y225_Q227P]
- SH2 binding enrichment [1]: 1.1
- SH2 binding enrichment [2]: 1.58
- SH2 binding enrichment [3]: 1.09
- phosphorylation enrichment [4]: 0.473
- phosphorylation enrichment [5]: 0.888
- phosphorylation enrichment [6]: 0.636
- phosphorylation enrichment [7]: 1.04
- phosphorylation enrichment [8]: 0.351
- phosphorylation enrichment [9]: 0.969
- phosphorylation enrichment [10]: 0.49
- phosphorylation enrichment [11]: 0.541
- phosphorylation enrichment [12]: 0.409
- phosphorylation enrichment [13]: 0.816
- phosphorylation enrichment [14]: 0.477
- phosphorylation enrichment [15]: 1.14
- phosphorylation enrichment [16]: 0.484

Sequence: KVDKEYEVRVR [GHR_Y226]
- SH2 binding enrichment [1]: 0.589
- SH2 binding enrichment [2]: 1.05
- SH2 binding enrichment [3]: 1.06
- phosphorylation enrichment [4]: 0.547
- phosphorylation enrichment [5]: 0.711
- phosphorylation enrichment [6]: 0.52
- phosphorylation enrichment [7]: 0.587
- phosphorylation enrichment [8]: 0.361
- phosphorylation enrichment [9]: 0.579
- phosphorylation enrichment [10]: 0.41
- phosphorylation enrichment [11]: 0.459
- phosphorylation enrichment [12]: 0.396
- phosphorylation enrichment [13]: 0.473
- phosphorylation enrichment [14]: 0.407
- phosphorylation enrichment [15]: 0.864
- phosphorylation enrichment [16]: 0.488

Sequence: FISLIYTNFEA [GSTP1_Y109_YF]
- SH2 binding enrichment [1]: 0.524
- SH2 binding enrichment [2]: 1.1
- SH2 binding enrichment [3]: 0.872
- phosphorylation enrichment [4]: 0.793
- phosphorylation enrichment [5]: 1.56
- phosphorylation enrichment [6]: 0.683
- phosphorylation enrichment [7]: 1.3
- phosphorylation enrichment [8]: 3.6
- phosphorylation enrichment [9]: 2.21
- phosphorylation enrichment [10]: 4.67
- phosphorylation enrichment [11]: 1.11
- phosphorylation enrichment [12]: 2
- phosphorylation enrichment [13]: 1.12
- phosphorylation enrichment [14]: 4.29
- phosphorylation enrichment [15]: 1.55
- phosphorylation enrichment [16]: 2.56

Sequence: RASDFYSQQMA [GBP6_Y334_A331S_YF]
- SH2 binding enrichment [1]: 0.649
- SH2 binding enrichment [2]: 0.739
- SH2 binding enrichment [3]: 0.575
- phosphorylation enrichment [4]: 0.683
- phosphorylation enrichment [5]: 0.755
- phosphorylation enrichment [6]: 0.444
- phosphorylation enrichment [7]: 0.688
- phosphorylation enrichment [8]: 0.957
- phosphorylation enrichment [9]: 0.738
- phosphorylation enrichment [10]: 0.675
- phosphorylation enrichment [11]: 0.708
- phosphorylation enrichment [12]: 0.37
- phosphorylation enrichment [13]: 0.605
- phosphorylation enrichment [14]: 0.423
- phosphorylation enrichment [15]: 0.682
- phosphorylation enrichment [16]: 0.539

Sequence: VEDQYYCVDCY [FHL1_Y208]
- SH2 binding enrichment [1]: 1.42
- SH2 binding enrichment [2]: 1.35
- SH2 binding enrichment [3]: 1.47
- phosphorylation enrichment [4]: 0.754
- phosphorylation enrichment [5]: 5.02
- phosphorylation enrichment [6]: 12
- phosphorylation enrichment [7]: 1.86
- phosphorylation enrichment [8]: 3.19
- phosphorylation enrichment [9]: 1.1
- phosphorylation enrichment [10]: 2.77
- phosphorylation enrichment [11]: 1.02
- phosphorylation enrichment [12]: 1.11
- phosphorylation enrichment [13]: 10.3
- phosphorylation enrichment [14]: 2.34
- phosphorylation enrichment [15]: 1.48
- phosphorylation enrichment [16]: 1.46

Sequence: MFNPMYALFRT [HUWE1_Y4078]
- SH2 binding enrichment [1]: 0.811
- SH2 binding enrichment [2]: 1.09
- SH2 binding enrichment [3]: 1.1
- phosphorylation enrichment [4]: 0.693
- phosphorylation enrichment [5]: 0.946
- phosphorylation enrichment [6]: 0.545
- phosphorylation enrichment [7]: 0.827
- phosphorylation enrichment [8]: 6.9
- phosphorylation enrichment [9]: 1.19
- phosphorylation enrichment [10]: 5.38
- phosphorylation enrichment [11]: 1.42
- phosphorylation enrichment [12]: 4.26
- phosphorylation enrichment [13]: 0.676
- phosphorylation enrichment [14]: 4.28
- phosphorylation enrichment [15]: 0.905
- phosphorylation enrichment [16]: 4.67

Sequence: VKMLEYLGKDV [CASP5_Y74]
- SH2 binding enrichment [1]: 0.389
- SH2 binding enrichment [2]: 0.662
- SH2 binding enrichment [3]: 0.77
- phosphorylation enrichment [4]: 0.651
- phosphorylation enrichment [5]: 1.07
- phosphorylation enrichment [6]: 0.375
- phosphorylation enrichment [7]: 0.591
- phosphorylation enrichment [8]: 0.504
- phosphorylation enrichment [9]: 0.57
- phosphorylation enrichment [10]: 0.337
- phosphorylation enrichment [11]: 0.422
- phosphorylation enrichment [12]: 0.413
- phosphorylation enrichment [13]: 0.453
- phosphorylation enrichment [14]: 0.454
- phosphorylation enrichment [15]: 0.726
- phosphorylation enrichment [16]: 0.491

Sequence: MFQVQYNSSVD [LRFN1_Y458_YF]
- SH2 binding enrichment [1]: 0.515
- SH2 binding enrichment [2]: 0.776
- SH2 binding enrichment [3]: 0.548
- phosphorylation enrichment [4]: 0.432
- phosphorylation enrichment [5]: 0.859
- phosphorylation enrichment [6]: 0.425
- phosphorylation enrichment [7]: 0.771
- phosphorylation enrichment [8]: 0.398
- phosphorylation enrichment [9]: 0.566
- phosphorylation enrichment [10]: 0.373
- phosphorylation enrichment [11]: 0.486
- phosphorylation enrichment [12]: 0.514
- phosphorylation enrichment [13]: 0.581
- phosphorylation enrichment [14]: 0.394
- phosphorylation enrichment [15]: 0.86
- phosphorylation enrichment [16]: 0.436

Sequence: LPPGEYVVVPS [CAPN1_Y494]
- SH2 binding enrichment [1]: 0.789
- SH2 binding enrichment [2]: 1.06
- SH2 binding enrichment [3]: 0.795
- phosphorylation enrichment [4]: 3.72
- phosphorylation enrichment [5]: 1.7
- phosphorylation enrichment [6]: 2.83
- phosphorylation enrichment [7]: 1.32
- phosphorylation enrichment [8]: 0.927
- phosphorylation enrichment [9]: 1.31
- phosphorylation enrichment [10]: 0.641
- phosphorylation enrichment [11]: 5.23
- phosphorylation enrichment [12]: 0.778
- phosphorylation enrichment [13]: 1.93
- phosphorylation enrichment [14]: 0.88
- phosphorylation enrichment [15]: 1.45
- phosphorylation enrichment [16]: 0.67

Sequence: EFKKHYGFSLF [ANXA3_Y295_YF]
- SH2 binding enrichment [1]: 0.622
- SH2 binding enrichment [2]: 0.815
- SH2 binding enrichment [3]: 0.749
- phosphorylation enrichment [4]: 0.509
- phosphorylation enrichment [5]: 0.949
- phosphorylation enrichment [6]: 0.461
- phosphorylation enrichment [7]: 0.751
- phosphorylation enrichment [8]: 0.416
- phosphorylation enrichment [9]: 0.642
- phosphorylation enrichment [10]: 0.46
- phosphorylation enrichment [11]: 0.574
- phosphorylation enrichment [12]: 0.561
- phosphorylation enrichment [13]: 0.721
- phosphorylation enrichment [14]: 0.413
- phosphorylation enrichment [15]: 1.01
- phosphorylation enrichment [16]: 0.507
